The values below come from patent US7537795B2, “Transdermal drug delivery devices having coated microprotrusions” (Alza Corporation, priority 2000, dated 2009).

For data set [1] the following is noted: guinea pig, in vivo.
A short description of data set [2]: Kinetics of drug absorption from hGH tip-coated microprotrusion array systems, plasma hGH by ELISA. It counts as in vivo, hairless guinea pigs. On the procedure: However, on the microprotrusion itself, the coating was found unevenly distributed.
Systems remained on the skin for 5 seconds (n=3) or 5 minutes (n=5). A group of animals (n=5) received a subcutaneous injection of 10 μg hGH. Blood samples were collected at time intervals for plasma hGH determination by ELISA. The hGH dose delivered was extrapolated based on an area under the curve (AUC) calculation compared to IV administration of hGH. […] On average, 5 μg of hGH was delivered in each animal, which accounts for approximately 50% of the coated dose.
In general terms: ELISA stands for enzyme-linked immunosorbent assay.

Data set [3] can be described thus: Ovalbumin absorption into the skin from dip-coated microprotrusion devices, skin biopsy fluorimetry. Format: in vivo, hairless guinea pigs. The note with it: dip-coated device, 8 mm skin biopsy. How it is done:
The feasibility of coating the microprotrusion devices with ovalbumin was evaluated. A coating solution comprising 200 mg/ml of fluorescein-tagged ovalbumin in water was prepared.
Microprotrusion application was performed using a spring loaded applicator which impacted the system against the animal's skin. […] The average total amount of ovalbumin delivered into the skin (Mavg) during these time intervals was determined by taking an 8 mm skin biopsy at the application site. The skin biopsy sample was then dissolved in hyamine hydroxide (diisobutylcresoxyethoxyethyl) dimethyl) benzylammonium hydroxide, 1 M in ethanol, sold by J. T. Baker (NJ, USA) and the amount of ovalbumin present was determined by fluorimetry. […] Although ovalbumin is not a pharmacological agent used in therapeutics, it is a good model for large potent pharmacologically active agents such as follicle stimulating hormone and erythropoietin.

A short description of data set [4]: Ovalbumin delivery from tip-coated microprotrusion array systems, skin biopsy fluorimetry. It counts as in vivo, euthanized hairless guinea pigs. On the procedure:
The coating was limited to the first 150 μm of the microprojection.
The applied systems comprised a coated microprotrusion array, adhered to the center of a LDPE backing with an adhesive (7 cm^2 disc). […] At the end of the wearing time, the system was removed and the skin wiped clean of any residual drug. The total amount of ovalbumin delivered in the skin during these time intervals was determined by dissolving a 8 mm skin biopsy in hyamine hydroxide (10% in methanol). Quantitation was performed by fluorimetry. […] Close to 100% of the dose had been delivered after 1 hour application time (solid bar).

Data set [5] in a line: Ovalbumin delivery from microprotrusion systems coated with 200, 50 and 10 mg/ml solutions. It counts as in vivo, hairless guinea pigs. The conditions noted are these: coating solutions 200, 50 and 10 mg/ml, device removed immediately after application. How it is done:
An experiment similar to that described in Example 1 was performed in the HGPs using the identical microprotrusion systems which were coated with aqueous ovalbumin solutions having ovalbumin concentrations of 200, 50, and 10 mg/ml ovalbumin. In all groups the microprotrusion device was removed immediately after application. Application and analysis were performed identically to that described in Example 1.

With `NC(=O)CC[C@@H]1NC(=O)[C@H](Cc2ccccc2)NC(=O)[C@H](Cc2ccc(O)cc2)NC(=O)CCSSC[C@@H](C(=O)N2CCC[C@H]2C(=O)N[C@H](CCCN=C(N)N)C(=O)NCC(N)=O)NC(=O)[C@H](CC(N)=O)NC1=O` [desmopressin], in data set [1], the “Additional drug absorbed after the first two hours” value was “no additional amount of drug was absorbed”, the “amount of desmopressin delivered versus Group B” value is on record as “did not increase significantly”, the “average delivery of desmopressin” value is on record as “about 5 μg” and the average desmopressin delivered was 18 µg.

A word on the bioavailability: it is the share of a dose that reaches the circulation, judged against a reference dose that is usually intravenous. Low values mean little systemic uptake, high ones much systemic uptake. As for “hGH: Human growth hormone, model for cytokines, particularly interferon”, the bioavailability in data set [2] (subcutaneous administration of 10 μg hGH) was 65%. In data set [2] (tip-coated array), the “hGH delivery, 5 seconds versus 5 minutes wearing times” value was “the same”. The “hGH delivered as share of the coated dose” value in data set [2] (tip-coated array, 5 seconds or 5 minutes wear) is listed as “approximately 50%”. Moreover, in data set [2] (tip-coated array, 5 seconds or 5 minutes wear, extrapolated from AUC compared to IV), the “hGH delivered in each animal, on average” value was 5 µg.

B1: ovalbumin: a 45,000 Dalton polypeptide containing an oligosaccharide side chain; model for large pharmacological agents; fluorescein/FITC-tagged in delivery studies (protein, UniProt P01012 2-386, looked up)
Ovalbumin: GSIGAASMEFCFDVFKELKVHHANENIFYCPIAIMSALAMVYLGAKDSTRTQINKVVRFDKLPGFGDSIEAQCGTSVNVHSSLRDILNQITKPNDVYSFSLASRLYAEERYPILPEYLQCVKELYRGGLEPINFQTAADQARELINSWVESQTNGIIRNVLQPSSVDSQTAMVLVNAIVFKGLWEKAFKDEDTQAMPFRVTEQESKPVQMMYQIGLFRVASMASEKMKILELPFASGTMSMLVLLPDEVSGLEQLESIINFEKLTEWTSSNVMEERKIKVYLPRMKMEEKYNLTSVLMAMGITDVFSSSANLSGISSAESLKISQAVHAAHAEINEAGREVVGSAEAGVDAASVSEEFRADHPFLFCIKHIATNAVLFFGRCVSP
modifications: fluorescein/FITC label
notes: a 45,000 Dalton polypeptide containing an oligosaccharide side chain; model for large pharmacological agents; fluorescein/FITC-tagged in delivery studies
With B1, the ovalbumin delivered intracutaneously entry is given as “about 25 μg” in data set [3] (5 second piercing) and “up to 80 μg” in data set [3] (1 hour application period). Moreover, the ovalbumin dose delivered result was “more than 80%” in data set [4] (5 seconds wearing time) and approximately 100% in data set [4] (1 hour application time). The “delivery of ovalbumin as a function of amount coated” value in data set [5] is “could be controlled by controlling the amounts coated on the microprotrusions”.
